T1: human LAG-3 on cells (human, UniProt P18627 23-525)
T1 sequence (looked up): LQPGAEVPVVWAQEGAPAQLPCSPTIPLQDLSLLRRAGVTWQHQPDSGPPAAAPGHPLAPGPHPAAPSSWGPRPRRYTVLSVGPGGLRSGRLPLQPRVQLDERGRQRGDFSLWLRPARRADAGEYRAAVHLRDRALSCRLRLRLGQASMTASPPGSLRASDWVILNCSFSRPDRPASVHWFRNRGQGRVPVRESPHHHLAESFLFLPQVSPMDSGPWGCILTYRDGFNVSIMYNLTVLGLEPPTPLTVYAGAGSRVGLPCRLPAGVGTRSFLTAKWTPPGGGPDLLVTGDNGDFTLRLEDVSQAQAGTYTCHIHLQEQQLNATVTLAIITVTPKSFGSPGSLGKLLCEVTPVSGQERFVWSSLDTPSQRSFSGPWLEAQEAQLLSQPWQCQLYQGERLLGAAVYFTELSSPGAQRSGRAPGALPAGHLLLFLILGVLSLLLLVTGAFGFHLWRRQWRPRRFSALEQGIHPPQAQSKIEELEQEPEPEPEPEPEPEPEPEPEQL

T2: Human LAG-3 without tag (human, UniProt P18627 23-450)
T2 construct: extracellular domain; also called untagged LAG-3 ECD protein
T2 sequence (looked up): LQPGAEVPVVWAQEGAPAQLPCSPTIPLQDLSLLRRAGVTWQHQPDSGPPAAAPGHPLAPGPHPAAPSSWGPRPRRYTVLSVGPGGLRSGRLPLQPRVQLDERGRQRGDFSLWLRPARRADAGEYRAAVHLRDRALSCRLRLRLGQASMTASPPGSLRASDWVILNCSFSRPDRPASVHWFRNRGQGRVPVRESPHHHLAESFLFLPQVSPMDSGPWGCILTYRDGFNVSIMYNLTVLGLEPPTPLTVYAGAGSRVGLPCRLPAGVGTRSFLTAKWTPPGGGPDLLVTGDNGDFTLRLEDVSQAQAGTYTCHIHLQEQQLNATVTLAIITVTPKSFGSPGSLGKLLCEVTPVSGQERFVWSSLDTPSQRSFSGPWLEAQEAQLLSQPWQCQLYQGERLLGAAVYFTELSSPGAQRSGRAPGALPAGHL

T3: mouse Fc-tagged human LAG-3 protein (human, UniProt P18627 23-450)
T3 construct: extracellular domain; also called mouse Fc-tagged LAG-3 protein; not shown: mouse Fc tag
T3 sequence (looked up): T2 sequence (looked up)

T4: mouse PD-1 protein (mouse, UniProt Q02242 25-167, limits assumed)
T4 sequence (looked up): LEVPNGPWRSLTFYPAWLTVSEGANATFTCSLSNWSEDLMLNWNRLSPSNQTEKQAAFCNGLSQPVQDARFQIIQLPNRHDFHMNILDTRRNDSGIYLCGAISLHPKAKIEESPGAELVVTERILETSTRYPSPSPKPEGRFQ

T5: human LAG-3 protein (Example 3) (human, UniProt P18627 23-450, limits assumed)
T5 construct: human is stated for the SPR test
T5 sequence (looked up): T2 sequence (looked up)

B1: W365-U6T1.G14-1.uIgG4.SP (bispecific antibody)
heavy: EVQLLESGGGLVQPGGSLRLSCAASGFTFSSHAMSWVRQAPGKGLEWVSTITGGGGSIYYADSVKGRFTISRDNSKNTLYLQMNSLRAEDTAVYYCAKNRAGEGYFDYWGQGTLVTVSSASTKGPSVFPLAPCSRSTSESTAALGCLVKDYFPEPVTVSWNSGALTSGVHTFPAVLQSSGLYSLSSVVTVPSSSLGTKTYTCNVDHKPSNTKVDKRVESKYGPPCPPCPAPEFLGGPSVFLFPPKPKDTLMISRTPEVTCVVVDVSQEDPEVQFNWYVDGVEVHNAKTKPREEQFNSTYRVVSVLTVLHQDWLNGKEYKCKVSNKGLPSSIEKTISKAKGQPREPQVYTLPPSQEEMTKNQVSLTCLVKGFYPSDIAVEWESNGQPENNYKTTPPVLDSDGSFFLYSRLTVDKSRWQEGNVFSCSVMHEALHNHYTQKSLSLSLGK
light: SYELTQPLSVSVALGQTARITCGGDNIGNKDVHWYQQKPGQAPVLVIYRDSNRPSGIPEGFSGSNSGNTATLTISRAQAGDEADYYCQVWDSIWVFGGGTKLTVLGQPKAAPSVTLFPPSSEELQANKATLVCLISDFYPGAVTVAWKADSSPVKAGVETTTPSKQSNNKYAASSYLSLTPEQWKSHKSYSCQVTHEGSTVEKTVAPTECSGGGGSGGGGSQLQLQESGPGLVKPSETLSLTCTVSGDSISSTSYYWGWIRQPPGKGLEWIGSFYYSGSTYYNPSLKSRVTISVDTSKNQFSLKLNSVTAADTAVYYCARMQLWSYDVDVWGQGTTVTVSSGGGGSGGGGSGGGGSQSALTQPASVSGSPGQSITISCTGTSSDVGGYDYVAWYQQHPGKVPKLMIYDVSERPSGVSNRFSGSKSGNTASLTISGLQAEDEADYYCSSYTSTTTLVVFGGGTKLSVL
notes: Anti-PD-1 (W3055-1.153.7) human IgG4 S228P; also called W365-G14; W365G-14
B2: W365-U6T1.G15-1.uIgG4.SP (bispecific antibody)
heavy: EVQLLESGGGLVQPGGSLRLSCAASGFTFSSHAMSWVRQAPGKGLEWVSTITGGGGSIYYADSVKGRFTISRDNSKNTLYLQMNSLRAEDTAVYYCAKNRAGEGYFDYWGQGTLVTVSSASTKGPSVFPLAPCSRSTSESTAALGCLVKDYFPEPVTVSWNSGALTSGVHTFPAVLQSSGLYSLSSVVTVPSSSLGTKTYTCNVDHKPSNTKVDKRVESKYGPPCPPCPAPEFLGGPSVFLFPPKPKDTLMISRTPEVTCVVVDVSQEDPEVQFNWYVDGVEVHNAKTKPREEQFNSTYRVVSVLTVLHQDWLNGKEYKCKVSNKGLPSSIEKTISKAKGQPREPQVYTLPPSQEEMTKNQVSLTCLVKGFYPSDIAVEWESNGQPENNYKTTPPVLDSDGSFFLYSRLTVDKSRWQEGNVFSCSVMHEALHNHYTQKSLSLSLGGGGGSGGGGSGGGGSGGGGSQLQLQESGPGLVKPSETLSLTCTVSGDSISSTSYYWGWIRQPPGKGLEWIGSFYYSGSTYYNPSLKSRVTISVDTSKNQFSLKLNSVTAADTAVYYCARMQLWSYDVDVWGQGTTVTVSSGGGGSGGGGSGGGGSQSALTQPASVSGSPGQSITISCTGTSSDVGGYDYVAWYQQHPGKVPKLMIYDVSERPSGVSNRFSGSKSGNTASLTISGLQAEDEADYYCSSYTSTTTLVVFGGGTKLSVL
light: SYELTQPLSVSVALGQTARITCGGDNIGNKDVHWYQQKPGQAPVLVIYRDSNRPSGIPEGFSGSNSGNTATLTISRAQAGDEADYYCQVWDSIWVFGGGTKLTVLGQPKAAPSVTLFPPSSEELQANKATLVCLISDFYPGAVTVAWKADSSPVKAGVETTTPSKQSNNKYAASSYLSLTPEQWKSHKSYSCQVTHEGSTVEKTVAPTECS
notes: Anti-PD-1 (W3055-1.153.7) human IgG4 S228P; also called W365-G15
B3: W3395-3.40.19 (antibody, V domains shown)
VH: QLQLQESGPGLVKPSETLSLTCTVSGDSISSTSYYWGWIRQPPGKGLEWIGSFYYSGSTYYNPSLKSRVTISVDTSKNQFSLKLNSVTAADTAVYYCARMQLWSYDVDVWGQGTTVTVSS
VL: QSALTQPASVSGSPGQSITISCTGTSSDVGGYDYVAWYQQHPGKVPKLMIYDVSERPSGVSNRFSGSKSGNTASLTISGLQAEDEADYYCSSYTSTTTLVVFGGGTKLSVL
notes: Fully human monoclonal anti-LAG-3 antibody; also called human W3395-3.40.19 LAG-3 Ab

Columns and labels:
human PD-1 on cells [1] = biological target: T6, human PD-1 on cells (human, UniProt Q15116 25-288); experiment: flow cytometry on human PD-1 expressing cells
T6 construct: whole, on cells; also called cell surface human PD-1; PD-1 expressing CHO-S cells
T6 sequence (Q15116 25-288): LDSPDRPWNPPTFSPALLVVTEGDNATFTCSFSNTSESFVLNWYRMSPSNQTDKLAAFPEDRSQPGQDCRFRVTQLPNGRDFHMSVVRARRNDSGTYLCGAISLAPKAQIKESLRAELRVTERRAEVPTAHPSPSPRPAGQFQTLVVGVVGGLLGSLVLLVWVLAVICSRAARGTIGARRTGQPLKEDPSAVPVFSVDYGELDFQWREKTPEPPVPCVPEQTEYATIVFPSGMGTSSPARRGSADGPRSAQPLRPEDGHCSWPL
Description: (§1) MFI of the cells was measured by flow cytometry and analyzed by FlowJo (version 7.6.1).

human CD4 protein = human CD4 protein (human, UniProt P01730 26-390, limits assumed); experiment: ELISA, human CD4 coated at 1 ug/mL, antibody added at 0.67 and 6.7 nM, OD450
Description: (§2) Cross-reactivity to human CD4, CTLA-4 or CD28 was measured by ELISA. Plates were coated with human CD4, CTLA-4 or CD28 at 1 μg/mL overnight at 4° C. […] The plates were then washed and subsequently incubated with corresponding secondary antibody for 60 min. After washing, TMB substrate was added and the color reaction was stopped by 2M HCl.

human LAG-3 on cells [2] = biological target: T1, human LAG-3 on cells; experiment: cell-based or functional assay
Human LAG-3 without tag = biological target: T2, Human LAG-3 without tag; experiment: SPR; antibody immobilized, untagged human LAG-3 injected, single-cycle kinetics
Description: The chip was regenerated with 10 mM glycine (pH 1.5).
(§3) The sensorgrams of blank surface and buffer channel were subtracted from the test sensorgrams. The experimental data was fitted by 1:1 model using Langmiur analysis.

human CTLA-4 protein = biological target: T7, human CTLA-4 protein (human, UniProt P16410 36-161); experiment: ELISA, human CTLA-4 coated at 1 ug/mL, antibody added at 0.67 and 6.7 nM, OD450
T7 construct: extracellular domain
T7 sequence (P16410 36-161): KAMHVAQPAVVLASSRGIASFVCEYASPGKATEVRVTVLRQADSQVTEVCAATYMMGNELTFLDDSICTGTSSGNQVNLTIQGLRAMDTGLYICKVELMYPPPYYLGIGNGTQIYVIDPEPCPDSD
Description: as §2

[3] = biological target: T3, mouse Fc-tagged human LAG-3 protein; experiment: flow cytometry; blocking of mFc-LAG-3 binding to MHC-II on Raji cells
Description: The mixture was transferred into the 96-well plates seeded with Raji cells which express MHC-II on the surface. […] The MFI was evaluated by flow cytometry and analyzed by the software FlowJo.

cynomolgus PD-1 on cells = biological target: T8, cynomolgus PD-1 on cells (cynomolgus, UniProt B0LAJ3 25-288); experiment: flow cytometry on cynomolgus PD-1 expressing 293F cells
T8 construct: also called cell surface cynomolgus PD-1
T8 sequence (B0LAJ3 entry or part of it limits assumed): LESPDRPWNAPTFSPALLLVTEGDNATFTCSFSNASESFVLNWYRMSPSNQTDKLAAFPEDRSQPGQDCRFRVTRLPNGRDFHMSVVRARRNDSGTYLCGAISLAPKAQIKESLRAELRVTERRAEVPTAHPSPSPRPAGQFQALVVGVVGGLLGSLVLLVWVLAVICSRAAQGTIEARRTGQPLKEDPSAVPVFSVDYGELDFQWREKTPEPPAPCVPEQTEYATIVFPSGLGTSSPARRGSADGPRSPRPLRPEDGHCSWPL
Description: (§4) MFI of the cells was measured by flow cytometry and analyzed by FlowJo.

human PD-1 on cells [4] = biological target: T6, human PD-1 on cells; experiment: cell-based or functional assay
[5] = biological target: T3, mouse Fc-tagged human LAG-3 protein; experiment: ELISA; antibody coated, mFc-tagged LAG-3 titrated
Description: (§5) The plates were then washed and subsequently incubated with HRP-labeled goat anti-mouse IgG antibody for 1 hour. After washing, TMB substrate was added and the color reaction was stopped by 2M HCl. The absorbance at 450 nm was read using a microplate reader.

[6] = biological target: T9, cynomolgus LAG-3 on cells (cynomolgus); experiment: flow cytometry on cynomolgus LAG-3 expressing 293F cells
T9 construct: whole, on cells; also called cell surface cynomolgus LAG-3
Description: as §4

human CD28 protein = biological target: T10, human CD28 protein (human, UniProt P10747 19-152); experiment: ELISA, human CD28 coated at 1 ug/mL, antibody added at 0.67 and 6.7 nM, OD450
T10 construct: extracellular domain
Description: as §2

mouse PD-1 protein = biological target: T4, mouse PD-1 protein; experiment: ELISA, antibody coated on the plate, mouse PD-1 (His tag on the sheet) added at 0.25, 2.5 and 25 nM, OD450
Description: as §5, with “After blocking and washing, various concentrations of mouse PD-1 protein were added to the plates and incubated at room temperature for 1 hour. The plates” for “The plates”

[7] = biological target: T11, mouse Fc-tagged human PD-1 protein (human, UniProt Q15116 25-170); experiment: dual-binding ELISA; mFc-PD-1 coated, antibody titrated, detected by His-tagged LAG-3 and anti-His-HRP; dual binding: PD-1 and LAG-3 protein together
T11 construct: extracellular domain; also called mouse Fc-tagged PD-1 protein; not shown: mouse Fc tag
T11 sequence (Q15116 25-170): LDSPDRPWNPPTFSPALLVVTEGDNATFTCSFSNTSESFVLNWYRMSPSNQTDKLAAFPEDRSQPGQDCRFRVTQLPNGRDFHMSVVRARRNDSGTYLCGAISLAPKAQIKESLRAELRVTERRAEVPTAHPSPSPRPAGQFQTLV

human PD-1 on cells [8] = biological target: T6, human PD-1 on cells; experiment: flow cytometry; competition with mFc-PD-L1 on PD-1 expressing CHO-S cells
Description: The mixture was transferred into the 96-well plates seeded with PD-1 expressing CHO-S cells. […] The MFI was evaluated by flow cytometry and analyzed by the software FlowJo.

[9] = biological target: T11, mouse Fc-tagged human PD-1 protein; experiment: ELISA; antibody coated, mFc-tagged PD-1 titrated
[10] = biological target: T12, His-tagged human PD-1 protein (MW: 40 KD) (human, UniProt Q15116 25-167); experiment: SPR Biacore 8K; antibody captured on anti-human Fc, His-PD-1 injected
T12 construct: not shown: His tag
T12 sequence (Q15116 25-167 limits assumed): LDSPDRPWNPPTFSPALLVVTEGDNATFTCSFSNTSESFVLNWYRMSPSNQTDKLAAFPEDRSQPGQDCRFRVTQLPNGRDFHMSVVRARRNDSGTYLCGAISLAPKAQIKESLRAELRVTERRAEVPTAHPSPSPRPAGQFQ
Description: Binding affinity of the bispecific antibodies to the antigen were determined by SPR assay using Biacore 8K. PD-1×LAG-3 antibodies were captured on an anti-human IgG Fc antibody immobilized CMS sensor chip (GE).
as §3

human LAG-3 on cells [11] = biological target: T1, human LAG-3 on cells; experiment: flow cytometry on human LAG-3 expressing 293F cells
Description: as §1

[12] = biological target: T11, mouse Fc-tagged human PD-1 protein; experiment: dual-binding ELISA; mFc-PD-1 coated, antibody titrated, detected by His-tagged LAG-3 and anti-His-HRP
human LAG-3 on cells [13] = biological target: T1, human LAG-3 on cells; experiment: FACS on cell surface human LAG-3
[14] = biological target: T5, human LAG-3 protein (Example 3); experiment: FACS; blocking of LAG-3 protein binding to MHC-II on Raji cells; FACS; blocking LAG-3 binding to MHC-II on Raji cells
[15] = biological target: cynomolgus LAG-3 (Example 3) (cynomolgus); experiment: method not stated
human LAG-3 on cells [16] = biological target: T1, human LAG-3 on cells; experiment: FACS affinity test on cell surface human LAG-3
[17] = biological target: T5, human LAG-3 protein (Example 3); experiment: ELISA; blocking of LAG-3 protein binding to Galectin-3; ELISA; blocking LAG-3 binding to Galectin-3
[18] = biological target: T5, human LAG-3 protein (Example 3); experiment: ELISA; blocking of LAG-3 protein binding to LSECtin; ELISA; blocking LAG-3 binding to LSECtin
[19] = biological target: T5, human LAG-3 protein (Example 3); experiment: SPR; SPR, direct binding

EC50 (human PD-1 on cells [1])	binding result (human CD4 protein)	EC50 of IL-2 pathways enhancement (luciferase reporter) (human LAG-3 on cells [2])	Kd (Human LAG-3 without tag)	koff (Human LAG-3 without tag)	kon (Human LAG-3 without tag)	binding result (human CTLA-4 protein)	IC50 [3]	EC50 (cynomolgus PD-1 on cells)	EC50 of NFAT pathways enhancement (luciferase reporter) (human PD-1 on cells [4])	EC50 [5]	EC50 [6]	binding result (human CD28 protein)	binding result (mouse PD-1 protein)	IC50 (human PD-1 on cells [8])	EC50 [9]	Kd [10]	koff [10]	kon [10]	EC50 (human LAG-3 on cells [11])	also measured	Binder
1320 pM	no binding (tested: 6.7 nM)	920 pM	< 26.1 pM	< 1e-05 s⁻¹	383000 M⁻¹ s⁻¹	no binding (tested: 6.7 nM)	2200 pM	380 pM	400 pM	270 pM	6500 pM	no binding (tested: 6.7 nM)	no binding (tested: 25 nM (mouse PD-1))	1010 pM	70 pM	2460 pM	0.000695 s⁻¹	283000 M⁻¹ s⁻¹	2570 pM	EC50 [7]: 40 pM	B1
1340 pM	no binding (tested: 6.7 nM)	320 pM	26.5 pM	1.89e-05 s⁻¹	714000 M⁻¹ s⁻¹	no binding (tested: 6.7 nM)	1680 pM	310 pM	410 pM	320 pM	20900 pM	no binding (tested: 6.7 nM)	no binding (tested: 25 nM (mouse PD-1))	1090 pM	70 pM	2160 pM	0.000592 s⁻¹	275000 M⁻¹ s⁻¹	5880 pM	EC50 [12]: 50 pM	B2
																				EC50 (human LAG-3 on cells [13]): 130 pM; EC50 [14]: 670 pM; EC50 [15]: 3920 pM; Kd (human LAG-3 on cells [16]): 53 pM; EC50 [17]: 560 pM; EC50 [18]: 510 pM; Kd [19]: 10.6 pM	B3

Reference: patent US20210115138A1 (WUXI BIOLOGICS IRELAND, published 2021)
